Source: the supplement of paper PMC10567573

B1: TBX5 (parent)
chain: FHEVGTEMIITKAGRRMFPSYKVK

Variants of: B1
Assay: protein stability index of a GFP-peptide fusion (GPS, HEK-293T) (PSI 1-6); higher = more stable
Details: c terminus: a fixed tail appended
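Note: lentivirally expressed fusions sorted by FACS into six bins by GFP to DsRed ratio, PSI derived from sequencing read proportions per bin multiplied by bin number.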

Variant | protein stability index
FHEVGTEMIITKAGRRMFPSYKPK [V23P] | 2.8
FHEVGTEMIITKAGRRMFPSYKFK [V23F] | 2.23
FHEVGTEMIITKAGRRMFPSYKMK [V23M] | 1.78
FHEVGTEMIITKAGRRMFPSYKDK [V23D] | 2.52
FHEVGTEMIITKAGRRMFPSYKCK [V23C] | 1.84
FHEVGTEMIITKAGRRMFPSYKGK [V23G] | 2.9
FHEVGTEMIITKAGRRMFPSYKSK [V23S] | 2.27
FHEVGTEMIITKAGRRMFPSYKLK [V23L] | 1.41
FHEVGTEMIITKAGRRMFPSYKKK [V23K] | 2.24
FHEVGTEMIITKAGRRMFPSYKHK [V23H] | 2.17
FHEVGTEMIITKAGRRMFPSYKIK [V23I] | 1.97
FHEVGTEMIITKAGRRMFPSYKNK [V23N] | 2.26
FHEVGTEMIITKAGRRMFPSYKQK [V23Q] | 2.09
FHEVGTEMIITKAGRRMFPSYYVK [K22Y] | 2.89
FHEVGTEMIITKAGRRMFPSYPVK [K22P] | 2.08
FHEVGTEMIITKAGRRMFPSYGVK [K22G] | 2.28
FHEVGTEMIITKAGRRMFPSYFVK [K22F] | 1.65
FHEVGTEMIITKAGRRMFPSYTVK [K22T] | 1.51
FHEVGTEMIITKAGRRMFPSYDVK [K22D] | 2.34
FHEVGTEMIITKAGRRMFPSYHVK [K22H] | 1.55
FHEVGTEMIITKAGRRMFPSYSVK [K22S] | 2.18
FHEVGTEMIITKAGRRMFPSYRVK [K22R] | 2.45
FHEVGTEMIITKAGRRMFPSYVVK [K22V] | 1.43
FHEVGTEMIITKAGRRMFPSYMVK [K22M] | 2.01

Variant | protein stability index
FHEVGTEMIITKAGRRMFPSYCVK [K22C] | 1.86
FHEVGTEMIITKAGRRMFPSYLVK [K22L] | 2.14
FHEVGTEMIITKAGRRMFPSYQVK [K22Q] | 1.79
FHEVGTEMIITKAGRRMFPSYIVK [K22I] | 2.03
FHEVGTEMIITKAGRRMFPSYAVK [K22A] | 1.97
FHEVGTEMIITKAGRRMFPSYEVK [K22E] | 1.9
FHEVGTEMIITKAGRRMFPSYWVK [K22W] | 1.98
FHEVGTEMIITKAGRRMFPSYNVK [K22N] | 2.03
FHEVGTEMIITKAGDRMFPSYKVK [R15D] | 2.71
FHEVGTEMIITKAGSRMFPSYKVK [R15S] | 1.69
FHEVGTEMIITKAGKRMFPSYKVK [R15K] | 1.92
FHEVGTEMIITKAGVRMFPSYKVK [R15V] | 1.72
FHEVGTEMIITKAGIRMFPSYKVK [R15I] | 1.83
FHEVGTEMIITKAGERMFPSYKVK [R15E] | 1.74
FHEVGTEMIITKAGFRMFPSYKVK [R15F] | 1.91
FHEVGTEMIITKAGARMFPSYKVK [R15A] | 2.18
FHEVGTEMIITKAGNRMFPSYKVK [R15N] | 2.29
FHEVGTEMIITKAGPRMFPSYKVK [R15P] | 1.87
FHEVGTEMIITKAGTRMFPSYKVK [R15T] | 2.21
FHEVGTEMIITKAGWRMFPSYKVK [R15W] | 1.53
FHEVGTEMIITKAGMRMFPSYKVK [R15M] | 1.59
FHEVGTEMIITKAGCRMFPSYKVK [R15C] | 2.63
FHEVGTEMIITKAGHRMFPSYKVK [R15H] | 2.14
FHEVGTEMIITKAGYRMFPSYKVK [R15Y] | 2.58

Variant | protein stability index
FHEVGTEMIITKAGQRMFPSYKVK [R15Q] | 2.2
FHEVGTEMIITKAGGRMFPSYKVK [R15G] | 1.77
FHEVGTEMIITKAGLRMFPSYKVK [R15L] | 1.81
FHEVGTEMIITKAGRRMFGSYKVK [P19G] | 2
FHEVGTEMIITKAGRRMFQSYKVK [P19Q] | 1.98
FHEVGTEMIITKAGRRMFMSYKVK [P19M] | 1.4
FHEVGTEMIITKAGRRMFASYKVK [P19A] | 2
FHEVGTEMIITKAGRRMFDSYKVK [P19D] | 2.2
FHEVGTEMIITKAGRRMFHSYKVK [P19H] | 1.09
FHEVGTEMIITKAGRRMFFSYKVK [P19F] | 1.79
FHEVGTEMIITKAGRRMFNSYKVK [P19N] | 1.61
FHEVGTEMIITKAGRRMFESYKVK [P19E] | 2.19
FHEVGTEMIITKAGRRMFKSYKVK [P19K] | 3.38
FHEVGTEMIITKAGRRMFSSYKVK [P19S] | 2.72
FHEVGTEMIITKAGRRMFYSYKVK [P19Y] | 3.12
FHEVGTEMIITKAGRRMFCSYKVK [P19C] | 2.53
FHEVGTEMIITKAGRRMFRSYKVK [P19R] | 2.89
FHEVGTEMIITKAGRRMFWSYKVK [P19W] | 1.75
FHEVGTEMIITKAGRRMFLSYKVK [P19L] | 1.74
FHEVGTEMIITKAGRRMFISYKVK [P19I] | 2.23
FHEVGTEMIITKAGRRMFTSYKVK [P19T] | 2.1
FHEVGTEMIITKAGRRMFVSYKVK [P19V] | 1.77
FHEVGTEMIITKWGRRMFPSYKVK [A13W] | 1.93
FHEVGTEMIITKTGRRMFPSYKVK [A13T] | 1.68

Variant | protein stability index
FHEVGTEMIITKRGRRMFPSYKVK [A13R] | 2.65
FHEVGTEMIITKYGRRMFPSYKVK [A13Y] | 1.55
FHEVGTEMIITKSGRRMFPSYKVK [A13S] | 1.87
FHEVGTEMIITKVGRRMFPSYKVK [A13V] | 2.02
FHEVGTEMIITKAGRRHFPSYKVK [M17H] | 1.71
FHEVGTEMIITKAGRRRFPSYKVK [M17R] | 2.57
FHEVGTEMIITKAGRRNFPSYKVK [M17N] | 1.87
FHEVGTEMIITKAGRREFPSYKVK [M17E] | 2.83
FHEVGTEMIITKAGRRKFPSYKVK [M17K] | 2.11
FHEVGTEMIITKAGRRFFPSYKVK [M17F] | 2
FHEVGTEMIITKAGRRIFPSYKVK [M17I] | 1.98
FHEVGTEMIITKAGRRYFPSYKVK [M17Y] | 2.44
FHEVGTEMIITKAGRRQFPSYKVK [M17Q] | 2.5
FHEVGTEMIITKAGRRTFPSYKVK [M17T] | 1.98
FHEVGTEMIITKAGRRDFPSYKVK [M17D] | 2.28
FHEVGTEMIITKAGRRCFPSYKVK [M17C] | 2.05
FHEVGTEMIITKAGRRPFPSYKVK [M17P] | 1.84
FHEVGTEMIITKAGRRSFPSYKVK [M17S] | 2.68
FHEVGTEMIITKAGRRAFPSYKVK [M17A] | 2.38
FHEVGTEMIITKAGRRVFPSYKVK [M17V] | 1.63
FHEVGTEMIITKAGRRLFPSYKVK [M17L] | 2.27
FHEVGTEMIITKAGRRGFPSYKVK [M17G] | 1.67
